Consider 14 molecules from patent US20180258140A1, “NEW DODECAPEPTIDES AND MICROCAPSULES FUNCTIONALISED WITH THEM TARGETED TO FIBROBLASTS” (Infinitec Activos, S.L., priority 2015, published 2018).

Data set [1] has as its target FGFR2 Kinase (Homo sapiens, UniProt P21802). The experiment in a line: FGFR2 kinase inhibition. It is filed as biochemical. Conditions: percent inhibition of control enzyme activity; test concentration not given. How it is done: [The source words this procedure for another target and reports this target under the same test.] Evaluation of the effects of the dodecapeptides of the invention on the activity of the human FGFR1 kinase were quantified by measuring the phosphorylation of the substrate Ulight-CAGAGAIETDKEYYTVKD (JAK1) using a human recombinant enzyme expressed in insect cells and the LANCE® detection method using the protocol described below:
The peptide to be tested, the reference compound or water (control) are mixed with the enzyme (0.252 ng) in a buffer containing 40 mM Hepes/Tris (pH 7.4), 0.8 mM EGTA/Tris, 8 mM MgCl2, 1.6 mM DTT and 0.008% Tween 20 (For control basal measurements, the enzyme is omitted from the reaction mixture). Thereafter, the reaction is initiated by adding 100 nM of the substrate Ulight-CAGAGAIETDKEYYTVKD (SEQ ID NO: 13) (JAK-1 peptide) and 100 μM ATP, and the mixture is incubated for 60 min at room temperature. Following incubation, the reaction is stopped by adding 13 mM EDTA. After 5 min, the anti-phospho-PT66 antibody labeled with europium chelate (EU-W1024-labeled Anti-Phosphotyrosine Antibody PT66, from Perkin Elmer) is added. After 60 more min, the fluorescence transfer is measured at λex=337 nm, λem=620 nm and λem=665 nm using a microplate reader (Envision, Perkin Elmer).
The enzyme activity is determined by dividing the signal measured at 665 nm by that measured at 620 nm (ratio). The results are expressed as a percent inhibition of the control enzyme activity.
The standard inhibitory reference compound is staurosporine, which is tested in each experiment at several concentrations to obtain an inhibition curve from which its IC50 value is calculated.
Results showing an inhibition (or stimulation for assays run in basal conditions) higher than 20% are considered to represent significant effects of the peptides of the invention.

Data set [2] concerns Human dermal fibroblasts. The experiment in a line: Cytotoxicity assay (MTT) in fibroblasts. It is filed as cell-based. The following applies: positive control 0.1% SDS, 48h incubation. As to the method:
(§1) Human dermal fibroblasts and human keratinocytes were used. The isolated cells were cultured in DMEM culture medium supplemented with 10% FCS and were incubated at 37° C. for maintenance treatment. Untreated cells were used as negative control. The positive control was 0.1% SDS. The microcapsules as obtained in Example 2 were tested in the DMEM culture medium at 0.03%. These weight percentages refer to the weight of the microcapsule in relation to the total weight. Cells were seeded at 20000 cells per well in a 96-well plate. 24 hours after seeding, cells were incubated under the conditions described above. After 48h of incubation at 37° C., the culture medium was removed and the MTT reagent was added. Cells were incubated 2 hours at 37° C. DMSO was then added and the absorbance of the formed formazan salt was measured at A 570 nm. Lower absorbance values correspond to cells with lower metabolic activity, which correlates with an increased damage and, therefore, with an increased cytotoxic effect. Thus, the amount of living cells is proportional to the amount of formazan produced.

Data set [3] relates to human keratinocytes. The experiment in a line: Cytotoxicity assay (MTT) in keratinocytes. Conditions: positive control 0.1% SDS, 48h incubation. It counts as cell-based. How it is done: as §1
Data set [4] has as its target human FGFR1 kinase (human, UniProt P11362 398-822, limits assumed). The experiment in a line: cell-based or functional assay.
The target of data set [5] is FGFR3 Kinase (UniProt P22607 436-806). Briefly: cell-based or functional assay.
Chain of FGFR3 Kinase (P22607 436-806 limits assumed): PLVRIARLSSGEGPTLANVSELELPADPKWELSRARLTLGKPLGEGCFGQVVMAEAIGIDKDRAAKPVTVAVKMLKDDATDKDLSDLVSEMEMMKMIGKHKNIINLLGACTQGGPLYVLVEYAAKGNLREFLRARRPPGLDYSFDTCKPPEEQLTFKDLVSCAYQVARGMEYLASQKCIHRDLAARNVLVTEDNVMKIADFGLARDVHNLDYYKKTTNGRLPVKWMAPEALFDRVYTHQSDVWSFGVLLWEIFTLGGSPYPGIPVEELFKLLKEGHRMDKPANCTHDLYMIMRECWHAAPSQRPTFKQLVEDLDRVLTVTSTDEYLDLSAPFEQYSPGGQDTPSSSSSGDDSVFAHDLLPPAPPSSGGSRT
The target in data set [6] is FGFR4 Kinase (UniProt P22455 460-802, limits assumed). The experiment in a line: cell-based or functional assay.
Chain of FGFR4 Kinase (P22455 460-802 limits assumed): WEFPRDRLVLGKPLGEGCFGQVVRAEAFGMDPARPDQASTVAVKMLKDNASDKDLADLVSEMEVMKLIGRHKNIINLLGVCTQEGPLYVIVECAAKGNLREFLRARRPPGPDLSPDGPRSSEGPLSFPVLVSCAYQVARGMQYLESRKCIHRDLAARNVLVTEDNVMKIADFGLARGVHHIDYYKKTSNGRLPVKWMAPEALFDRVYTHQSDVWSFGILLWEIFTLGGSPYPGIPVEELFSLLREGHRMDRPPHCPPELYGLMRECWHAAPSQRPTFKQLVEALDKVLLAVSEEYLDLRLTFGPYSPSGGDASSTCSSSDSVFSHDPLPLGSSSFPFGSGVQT

*: point of attachment. Palmitoyl = CCCCCCCCCCCCCCCC(=O)*

Chain of FGFR2 Kinase (P21802 22-821): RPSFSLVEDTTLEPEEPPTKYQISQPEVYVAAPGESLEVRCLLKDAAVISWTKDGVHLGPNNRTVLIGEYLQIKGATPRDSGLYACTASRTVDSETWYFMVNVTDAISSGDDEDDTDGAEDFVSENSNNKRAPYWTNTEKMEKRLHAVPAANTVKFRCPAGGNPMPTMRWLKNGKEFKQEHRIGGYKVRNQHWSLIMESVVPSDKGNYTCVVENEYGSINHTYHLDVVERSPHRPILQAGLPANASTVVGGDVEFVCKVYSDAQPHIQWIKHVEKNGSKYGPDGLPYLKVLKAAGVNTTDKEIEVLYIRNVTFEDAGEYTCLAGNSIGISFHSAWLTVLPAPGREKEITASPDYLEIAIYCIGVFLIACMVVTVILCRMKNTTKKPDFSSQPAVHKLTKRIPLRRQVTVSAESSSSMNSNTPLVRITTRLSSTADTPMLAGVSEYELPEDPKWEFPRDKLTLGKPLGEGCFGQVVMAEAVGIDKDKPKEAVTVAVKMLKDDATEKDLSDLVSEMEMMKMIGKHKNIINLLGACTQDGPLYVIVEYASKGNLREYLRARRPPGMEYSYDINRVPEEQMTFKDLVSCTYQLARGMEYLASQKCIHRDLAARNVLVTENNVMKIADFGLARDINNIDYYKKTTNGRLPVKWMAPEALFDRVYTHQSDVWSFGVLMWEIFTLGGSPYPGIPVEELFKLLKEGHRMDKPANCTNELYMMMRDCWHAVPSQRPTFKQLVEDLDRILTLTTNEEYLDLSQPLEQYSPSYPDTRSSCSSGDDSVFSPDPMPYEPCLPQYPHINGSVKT
Chain of human FGFR1 kinase (P11362 398-822 limits assumed): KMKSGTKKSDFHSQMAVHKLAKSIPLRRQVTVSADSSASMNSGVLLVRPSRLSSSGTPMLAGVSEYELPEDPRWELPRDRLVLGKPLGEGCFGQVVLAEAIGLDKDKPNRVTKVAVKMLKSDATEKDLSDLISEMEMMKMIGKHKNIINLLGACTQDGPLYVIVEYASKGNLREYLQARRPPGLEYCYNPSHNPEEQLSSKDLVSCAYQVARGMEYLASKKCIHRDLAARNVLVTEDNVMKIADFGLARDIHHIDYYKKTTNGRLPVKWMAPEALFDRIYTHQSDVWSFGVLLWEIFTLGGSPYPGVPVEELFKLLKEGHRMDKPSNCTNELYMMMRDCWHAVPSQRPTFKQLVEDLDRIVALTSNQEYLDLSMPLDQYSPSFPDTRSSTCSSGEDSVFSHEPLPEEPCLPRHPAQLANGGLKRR

Consider “Palm-Lys-Phe-Ala-Leu-Pro-Leu-Gly-Asn-Tyr-Lys-Lys-Pro-NH2 (Palmitoyl-KFALPLGNYKKP-NH2; SMILES CCCCCCCCCCCCCCCC(=O)N[C@@H](CCCCN)C(=O)N[C@@H](Cc1ccccc1)C(=O)N[C@@H](C)C(=O)N[C@@H](CC(C)C)C(=O)N1CCC[C@H]1C(=O)N[C@@H](CC(C)C)C(=O)NCC(=O)N[C@@H](CC(N)=O)C(=O)N[C@@H](Cc1ccc(O)cc1)C(=O)N[C@@H](CCCCN)C(=O)N[C@@H](CCCCN)C(=O)N1CCC[C@H]1C(N)=O) [Peptide 3]”, for which the “FGFR2 Kinase % Inhibition” value in data set [1] was determined as 98.7%.

For “Palm-Lys-Phe-Asn-Leu-Pro-Leu-Gly-Asn-Tyr-Ala-Lys-Pro-NH2 (Palmitoyl-KFNLPLGNYAKP-NH2; SMILES CCCCCCCCCCCCCCCC(=O)N[C@@H](CCCCN)C(=O)N[C@@H](Cc1ccccc1)C(=O)N[C@@H](CC(N)=O)C(=O)N[C@@H](CC(C)C)C(=O)N1CCC[C@H]1C(=O)N[C@@H](CC(C)C)C(=O)NCC(=O)N[C@@H](CC(N)=O)C(=O)N[C@@H](Cc1ccc(O)cc1)C(=O)N[C@@H](C)C(=O)N[C@@H](CCCCN)C(=O)N1CCC[C@H]1C(N)=O) [Peptide 10]”, the “FGFR2 Kinase % Inhibition” value in data set [1] is reported as 93.4%.

In the case of “Palm-Lys-Phe-Asn-Leu-Ala-Leu-Gly-Asn-Tyr-Lys-Lys-Pro-NH2 (Palmitoyl-KFNLALGNYKKP-NH2; SMILES CCCCCCCCCCCCCCCC(=O)N[C@@H](CCCCN)C(=O)N[C@@H](Cc1ccccc1)C(=O)N[C@@H](CC(N)=O)C(=O)N[C@@H](CC(C)C)C(=O)N[C@@H](C)C(=O)N[C@@H](CC(C)C)C(=O)NCC(=O)N[C@@H](CC(N)=O)C(=O)N[C@@H](Cc1ccc(O)cc1)C(=O)N[C@@H](CCCCN)C(=O)N[C@@H](CCCCN)C(=O)N1CCC[C@H]1C(N)=O) [Peptide 5]”, in data set [1], the “FGFR2 Kinase % Inhibition” value was found to be 91.1%.

“Palm-Lys-Phe-Asn-Leu-Pro-Leu-Gly-Asn-Tyr-Lys-Lys-Ala-NH2 (Palmitoyl-KFNLPLGNYKKA-NH2; SMILES CCCCCCCCCCCCCCCC(=O)N[C@@H](CCCCN)C(=O)N[C@@H](Cc1ccccc1)C(=O)N[C@@H](CC(N)=O)C(=O)N[C@@H](CC(C)C)C(=O)N1CCC[C@H]1C(=O)N[C@@H](CC(C)C)C(=O)NCC(=O)N[C@@H](CC(N)=O)C(=O)N[C@@H](Cc1ccc(O)cc1)C(=O)N[C@@H](CCCCN)C(=O)N[C@@H](CCCCN)C(=O)N[C@@H](C)C(N)=O) [Peptide 12]”: the “FGFR2 Kinase % Inhibition” value in data set [1] amounted to 90.1%.

For “Palm-Lys-Phe-Asn-Leu-Pro-Ala-Gly-Asn-Tyr-Lys-Lys-Pro-NH2 (Palmitoyl-KFNLPAGNYKKP-NH2; SMILES CCCCCCCCCCCCCCCC(=O)N[C@@H](CCCCN)C(=O)N[C@@H](Cc1ccccc1)C(=O)N[C@@H](CC(N)=O)C(=O)N[C@@H](CC(C)C)C(=O)N1CCC[C@H]1C(=O)N[C@@H](C)C(=O)NCC(=O)N[C@@H](CC(N)=O)C(=O)N[C@@H](Cc1ccc(O)cc1)C(=O)N[C@@H](CCCCN)C(=O)N[C@@H](CCCCN)C(=O)N1CCC[C@H]1C(N)=O) [Peptide 6]”, in data set [1], the “FGFR2 Kinase % Inhibition” value came out at 98.8%.

Regarding “Palm-Lys-Phe-Asn-Leu-Pro-Leu-Gly-Ala-Tyr-Lys-Lys-Pro-NH2 (Palmitoyl-KFNLPLGAYKKP-NH2; SMILES CCCCCCCCCCCCCCCC(=O)N[C@@H](CCCCN)C(=O)N[C@@H](Cc1ccccc1)C(=O)N[C@@H](CC(N)=O)C(=O)N[C@@H](CC(C)C)C(=O)N1CCC[C@H]1C(=O)N[C@@H](CC(C)C)C(=O)NCC(=O)N[C@@H](C)C(=O)N[C@@H](Cc1ccc(O)cc1)C(=O)N[C@@H](CCCCN)C(=O)N[C@@H](CCCCN)C(=O)N1CCC[C@H]1C(N)=O) [Peptide 8]”, in data set [1], the “FGFR2 Kinase % Inhibition” value was 98.8%.

Turning to “Palm-Lys-Phe-Asn-Leu-Pro-Leu-Gly-Asn-Tyr-Lys-Lys-Pro-NH2 (Palmitoyl-KFNLPLGNYKKP-NH2; SMILES CCCCCCCCCCCCCCCC(=O)N[C@@H](CCCCN)C(=O)N[C@@H](Cc1ccccc1)C(=O)N[C@@H](CC(N)=O)C(=O)N[C@@H](CC(C)C)C(=O)N1CCC[C@H]1C(=O)N[C@@H](CC(C)C)C(=O)NCC(=O)N[C@@H](CC(N)=O)C(=O)N[C@@H](Cc1ccc(O)cc1)C(=O)N[C@@H](CCCCN)C(=O)N[C@@H](CCCCN)C(=O)N1CCC[C@H]1C(N)=O) [Peptide 1]”, the “FGFR2 Kinase % Inhibition” value in data set [1] was 95.4%.

For the molecule “Palm-Lys-Phe-Asn-Leu-Pro-Leu-Ala-Asn-Tyr-Lys-Lys-Pro-NH2 (Palmitoyl-KFNLPLANYKKP-NH2; SMILES CCCCCCCCCCCCCCCC(=O)N[C@@H](CCCCN)C(=O)N[C@@H](Cc1ccccc1)C(=O)N[C@@H](CC(N)=O)C(=O)N[C@@H](CC(C)C)C(=O)N1CCC[C@H]1C(=O)N[C@@H](CC(C)C)C(=O)N[C@@H](C)C(=O)N[C@@H](CC(N)=O)C(=O)N[C@@H](Cc1ccc(O)cc1)C(=O)N[C@@H](CCCCN)C(=O)N[C@@H](CCCCN)C(=O)N1CCC[C@H]1C(N)=O) [Peptide 7]”, in data set [1], the “FGFR2 Kinase % Inhibition” value was 98.4%.

With “Palm-Lys-Phe-Asn-Ala-Pro-Leu-Gly-Asn-Tyr-Lys-Lys-Pro-NH2 (Palmitoyl-KFNAPLGNYKKP-NH2; SMILES CCCCCCCCCCCCCCCC(=O)N[C@@H](CCCCN)C(=O)N[C@@H](Cc1ccccc1)C(=O)N[C@@H](CC(N)=O)C(=O)N[C@@H](C)C(=O)N1CCC[C@H]1C(=O)N[C@@H](CC(C)C)C(=O)NCC(=O)N[C@@H](CC(N)=O)C(=O)N[C@@H](Cc1ccc(O)cc1)C(=O)N[C@@H](CCCCN)C(=O)N[C@@H](CCCCN)C(=O)N1CCC[C@H]1C(N)=O) [Peptide 4]”, in data set [1], the “FGFR2 Kinase % Inhibition” value stood at 87.5%.

“Palm-Lys-Phe-Asn-Leu-Pro-Leu-Gly-Asn-Tyr-Lys-Ala-Pro-NH2 (Palmitoyl-KFNLPLGNYKAP-NH2; SMILES CCCCCCCCCCCCCCCC(=O)N[C@@H](CCCCN)C(=O)N[C@@H](Cc1ccccc1)C(=O)N[C@@H](CC(N)=O)C(=O)N[C@@H](CC(C)C)C(=O)N1CCC[C@H]1C(=O)N[C@@H](CC(C)C)C(=O)NCC(=O)N[C@@H](CC(N)=O)C(=O)N[C@@H](Cc1ccc(O)cc1)C(=O)N[C@@H](CCCCN)C(=O)N[C@@H](C)C(=O)N1CCC[C@H]1C(N)=O) [Peptide 11]”: in data set [1], the “FGFR2 Kinase % Inhibition” value is on record as 89.9%.

Regarding `CCCCCCCCCCCCOS(=O)(=O)[O-].[Na+]` [SDS, Sodium dodecyl sulfate], in data set [2], the “Fibroblasts % cell viability” value is on record as 25.0%. In addition, the “Keratinocytes % cell viability” value in data set [3] amounted to 12%.

Consider “Palm-Lys-Ala-Asn-Leu-Pro-Leu-Gly-Asn-Tyr-Lys-Lys-Pro-NH2 (Palmitoyl-KANLPLGNYKKP-NH2; SMILES CCCCCCCCCCCCCCCC(=O)N[C@@H](CCCCN)C(=O)N[C@@H](C)C(=O)N[C@@H](CC(N)=O)C(=O)N[C@@H](CC(C)C)C(=O)N1CCC[C@H]1C(=O)N[C@@H](CC(C)C)C(=O)NCC(=O)N[C@@H](CC(N)=O)C(=O)N[C@@H](Cc1ccc(O)cc1)C(=O)N[C@@H](CCCCN)C(=O)N[C@@H](CCCCN)C(=O)N1CCC[C@H]1C(N)=O) [Peptide 2]”, for which the “FGFR2 Kinase % Inhibition” value in data set [1] came to 96.3%.

For “Palm-Lys-Phe-Asn-Leu-Pro-Leu-Gly-Asn-Ala-Lys-Lys-Pro-NH2 (Palmitoyl-KFNLPLGNAKKP-NH2; SMILES CCCCCCCCCCCCCCCC(=O)N[C@@H](CCCCN)C(=O)N[C@@H](Cc1ccccc1)C(=O)N[C@@H](CC(N)=O)C(=O)N[C@@H](CC(C)C)C(=O)N1CCC[C@H]1C(=O)N[C@@H](CC(C)C)C(=O)NCC(=O)N[C@@H](CC(N)=O)C(=O)N[C@@H](C)C(=O)N[C@@H](CCCCN)C(=O)N[C@@H](CCCCN)C(=O)N1CCC[C@H]1C(N)=O) [Peptide 9]”, the “FGFR2 Kinase % Inhibition” value in data set [1] stood at 99.4%.

B1: Peptide 2: Palm-Lys-Ala-Asn-Leu-Pro-Leu-Gly-Asn-Tyr-Lys-Lys-Pro-NH2 (peptide)
peptide: Palmitoyl-KANLPLGNYKKP-NH2
SMILES: CCCCCCCCCCCCCCCC(=O)N[C@@H](CCCCN)C(=O)N[C@@H](C)C(=O)N[C@@H](CC(N)=O)C(=O)N[C@@H](CC(C)C)C(=O)N1CCC[C@H]1C(=O)N[C@@H](CC(C)C)C(=O)NCC(=O)N[C@@H](CC(N)=O)C(=O)N[C@@H](Cc1ccc(O)cc1)C(=O)N[C@@H](CCCCN)C(=O)N[C@@H](CCCCN)C(=O)N1CCC[C@H]1C(N)=O
As for B1, in data set [4], the “FGFR1 Kinase % Inhibition” value is 0%. Besides, the “FGFR3 Kinase % Inhibition” value in data set [5] came to 38.8%. Further, in data set [6], the “FGFR4 Kinase % Inhibition” value stood at 96.4%.
